The numbers were not newly measured in paper PMC12083247, which cites them from elsewhere.

The target of one data set is S100A10 (Homo sapiens) (UniProt P60903).
In the next data set the target is calpain (Homo sapiens) (UniProt P07384).
Chain of UniProt P07384 (P07384 2-714): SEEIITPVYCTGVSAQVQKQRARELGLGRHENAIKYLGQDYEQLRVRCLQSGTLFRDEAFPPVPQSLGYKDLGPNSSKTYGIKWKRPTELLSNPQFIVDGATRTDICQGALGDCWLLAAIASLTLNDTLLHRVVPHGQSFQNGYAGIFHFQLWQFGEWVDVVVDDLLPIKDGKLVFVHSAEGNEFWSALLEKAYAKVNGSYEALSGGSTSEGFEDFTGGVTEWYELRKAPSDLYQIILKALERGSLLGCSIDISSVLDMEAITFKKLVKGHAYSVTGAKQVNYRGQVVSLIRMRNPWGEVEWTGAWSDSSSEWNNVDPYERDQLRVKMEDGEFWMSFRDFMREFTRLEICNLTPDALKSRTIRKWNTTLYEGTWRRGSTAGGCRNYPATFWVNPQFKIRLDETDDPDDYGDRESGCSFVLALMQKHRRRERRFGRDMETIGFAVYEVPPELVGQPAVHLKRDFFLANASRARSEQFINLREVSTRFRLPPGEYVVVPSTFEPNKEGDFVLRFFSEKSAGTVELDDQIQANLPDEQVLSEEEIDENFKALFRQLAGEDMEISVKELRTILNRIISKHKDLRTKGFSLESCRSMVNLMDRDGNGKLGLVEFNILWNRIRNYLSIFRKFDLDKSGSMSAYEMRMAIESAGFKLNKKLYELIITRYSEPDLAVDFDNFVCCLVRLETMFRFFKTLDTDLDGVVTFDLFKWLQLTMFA

Chain of UniProt P60903 (P60903 whole entry): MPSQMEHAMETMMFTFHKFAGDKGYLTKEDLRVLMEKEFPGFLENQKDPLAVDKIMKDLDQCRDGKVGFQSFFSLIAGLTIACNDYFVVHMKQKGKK

Turning to “annexin A2 N-terminal 10-12 residues (from UniProt P07355)”, the Kd with S100A10 (Homo sapiens) is 13 nM. As for “calpastatin domain I (from UniProt P20810)”, in the data set with calpain (Homo sapiens), the Ki was 15 nM.
